Results published in publication PMC4126377.
One block for each substance: values may come before it.

Target: α- and β-tropomyosin
Test: GST pull-down
Settings: all curves start at 1 at 7.5 µg, read off a plot

response (relative intensity) (sub-panel NEB ex122 (super repeat 18), curve 122m, 15 µg α- and β-tropomyosin, parent: est. 1.07): 1.08 | response (relative intensity) (sub-panel NEB ex122 (super repeat 18), curve 122m, 30 µg α- and β-tropomyosin, parent: est. 1.18): 1.19 | response (relative intensity) (sub-panel NEB ex122 (super repeat 18), curve 122m, 60 µg α- and β-tropomyosin, parent: est. 1.18): 1.2
Substance: GST-nebulin super repeat 18 (S18), wild type (from UniProt P20929-3) p.Ser6366Ile

response (relative intensity) (sub-panel NEB ex151 (super repeat 22), curve 151m, 15 µg α- and β-tropomyosin, parent: est. 1.28): 1.12 | response (relative intensity) (sub-panel NEB ex151 (super repeat 22), curve 151m, 30 µg α- and β-tropomyosin, parent: est. 1.33): 1.17 | response (relative intensity) (sub-panel NEB ex151 (super repeat 22), curve 151m, 60 µg α- and β-tropomyosin, parent: est. 1.34): 1.18
Substance: GST-nebulin super repeat 22 (S22), wild type (from UniProt P20929-3) p.Thr7382Pro

response (relative intensity) (sub-panel NEB ex54 (super repeat 9), curve 54m, 15 µg α- and β-tropomyosin, parent: est. 1.25): 1.27 | response (relative intensity) (sub-panel NEB ex54 (super repeat 9), curve 54m, 30 µg α- and β-tropomyosin, parent: est. 1.30): 1.36 | response (relative intensity) (sub-panel NEB ex54 (super repeat 9), curve 54m, 60 µg α- and β-tropomyosin, parent: est. 1.30): 1.37
Substance: GST-nebulin super repeat 9 (S9), wild type (from UniProt P20929-3) p.Glu2431Lys
